# Measured values reported in paper PMC4049591.
# Key:
# [1] = cycloheximide chase of SHH-C, HA immunoblot; conditions: glycan changed form; control: untreated cells
# [2] = HA immunoblot of auto-cleavage; conditions: glycan lost; control: wild-type SHH-HA
Substance,degradation_or_half_life [1],other: proteolytic processing [2]
sonic hedgehog (SHH): castanospermine (CST),decreases,–
sonic hedgehog (SHH): kifunensine (KIF),decreases,–
sonic hedgehog (SHH): N278A,–,abolishes
